Assay results taken from patent US20210101970A1 (Pfizer, published 2021).
Substitutions are numbered along the chain they refer to. Each block holds one binder with its values, some of them ahead of it.

How the values were obtained:
XC281 = biological target: T1, XC281 (human, UniProt P32302 2-372); assay: flow cytometry on HEK-293T cells transiently expressing the FLAG-tagged mutein; ratio of gMFI of the antibody to gMFI of anti-FLAG PE
T1 construct: also called hCXCR5 D22A
T1 sequence: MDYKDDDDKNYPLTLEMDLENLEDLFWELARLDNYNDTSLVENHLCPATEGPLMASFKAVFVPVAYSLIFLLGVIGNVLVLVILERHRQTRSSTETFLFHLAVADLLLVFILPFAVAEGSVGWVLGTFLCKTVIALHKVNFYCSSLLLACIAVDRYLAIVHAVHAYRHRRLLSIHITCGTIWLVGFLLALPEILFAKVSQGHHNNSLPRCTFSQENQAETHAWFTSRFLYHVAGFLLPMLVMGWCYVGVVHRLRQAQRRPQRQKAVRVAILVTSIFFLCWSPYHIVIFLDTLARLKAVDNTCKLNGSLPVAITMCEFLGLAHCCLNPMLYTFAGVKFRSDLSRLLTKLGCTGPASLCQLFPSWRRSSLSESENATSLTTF
Procedure: (§1) The cells were analyzed by flow cytometry using an Accuri (BD Biosciences Franklin Lakes, N.J.). The geometric mean fluorescence intensity (gMFI) was determined and the ratio for the gMFI of each CXCR5 antibody and anti-flag was calculated.

XC256 = biological target: T2, XC256; assay: FACS on cells expressing the CXCR5 construct
T2 construct: whole, on cells; also called hCXCR5-mN-mL2

XC253 = biological target: T3, XC253; assay: FACS on cells expressing the CXCR5 construct
T3 construct: whole, on cells; also called hCXCR5-mN

human CXCR5 [1] = biological target: T4, human CXCR5 (human, UniProt P32302 1-372); assay: FACS on cells expressing the CXCR5 construct
T4 construct: also called hCXCR5; C-X-C chemokine receptor type 5
T4 sequence: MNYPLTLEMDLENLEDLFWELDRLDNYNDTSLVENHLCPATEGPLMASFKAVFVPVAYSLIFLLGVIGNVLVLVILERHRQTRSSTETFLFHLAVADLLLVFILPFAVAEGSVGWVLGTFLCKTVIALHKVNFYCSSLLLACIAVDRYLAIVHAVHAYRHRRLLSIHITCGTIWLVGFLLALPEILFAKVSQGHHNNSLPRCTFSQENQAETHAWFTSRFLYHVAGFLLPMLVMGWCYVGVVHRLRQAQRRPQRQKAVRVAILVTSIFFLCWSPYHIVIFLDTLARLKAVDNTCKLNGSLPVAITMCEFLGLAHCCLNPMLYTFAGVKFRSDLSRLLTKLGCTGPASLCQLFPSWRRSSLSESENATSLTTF

CXCR4 = biological target: T5, CXCR4 (human, UniProt P61073 1-352); assay: flow cytometry (GMFI) on Jurkat cells, which express CXCR4; chimeric antibody, goat anti-human PE
T5 construct: whole, on cells
T5 sequence (P61073 whole entry): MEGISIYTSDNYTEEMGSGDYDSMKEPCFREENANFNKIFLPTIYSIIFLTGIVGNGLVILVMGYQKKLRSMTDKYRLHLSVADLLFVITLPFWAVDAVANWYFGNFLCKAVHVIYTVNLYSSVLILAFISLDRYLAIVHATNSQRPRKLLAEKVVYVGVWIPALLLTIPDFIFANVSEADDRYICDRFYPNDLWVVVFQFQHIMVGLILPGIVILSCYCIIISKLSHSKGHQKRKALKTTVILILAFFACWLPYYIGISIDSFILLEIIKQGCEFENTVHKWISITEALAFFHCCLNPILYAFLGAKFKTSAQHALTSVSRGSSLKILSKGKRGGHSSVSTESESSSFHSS
Procedure: To determine the specificity of the antibodies for CXCR5, the binding of the antibodies to cells expressing other […] was assessed. Briefly, FlowCellect chemokine receptor cell lines expressing CXCR1, CXCR2, or CXCR3 (EMD Millipore, Billerica, Mass.), and Jurkats (ATCC, Manassas, Va.), which express CXCR4, were stained with 5 μg/ml or 10 μg/ml of each anti-CXCR5 chimeric antibody. The cells were then incubated with goat anti-human conjugated with PE (Southern Biotech, Birmingham, Ala.) prior to analysis by flow cytometry using a FACSVerse Analyzer (BD Biosciences, Franklin Lakes, N.J.).

human CXCR5 [2] = biological target: T4, human CXCR5; assay: flow cytometry on Raji cells, gMFI titration
Procedure: The apparent affinity of antibody binding to Raji cells was calculated as the EC₅₀ of equilibrium binding titration curves in which the geometric mean fluorescence intensity (gMFI) of the antigen binding population was quantified by flow cytometry and the results are shown in Table 2.

XC276 = biological target: T6, XC276 (human, UniProt P32302 2-372); assay: flow cytometry on HEK-293T cells transiently expressing the FLAG-tagged mutein; ratio of gMFI of the antibody to gMFI of anti-FLAG PE
T6 construct: also called hCXCR5 D10G
T6 sequence: T1 sequence with D18G, A30D
Procedure: as §1

XC277 = biological target: T7, XC277 (human, UniProt P32302 2-372); assay: as above
T7 construct: also called hCXCR5 SI(insertion)
T7 sequence: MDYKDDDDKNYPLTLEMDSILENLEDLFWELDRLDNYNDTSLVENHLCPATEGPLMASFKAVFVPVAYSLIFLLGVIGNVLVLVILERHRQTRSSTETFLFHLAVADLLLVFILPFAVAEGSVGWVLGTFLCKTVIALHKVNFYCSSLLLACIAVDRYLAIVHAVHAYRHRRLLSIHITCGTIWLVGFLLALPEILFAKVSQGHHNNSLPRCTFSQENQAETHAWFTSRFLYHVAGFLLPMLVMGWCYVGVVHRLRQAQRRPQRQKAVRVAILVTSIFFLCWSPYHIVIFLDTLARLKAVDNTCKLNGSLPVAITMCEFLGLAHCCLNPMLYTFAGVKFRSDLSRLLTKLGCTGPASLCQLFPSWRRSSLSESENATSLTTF
Procedure: as §1

GMFI (XC256): 1260 GMFI
GMFI (XC253): 1220 GMFI
GMFI (human CXCR5 [1]): 139000 GMFI
B1: Afucosyl humanized 11G2 154/155 (antibody, human IgG1, kappa, V domains shown)
VH: EVQLVESGGGLVQPGGSLRLSCAASGFTFTDFYMSWVRQAPGKGLEWVGFIRNKANGYTTEYSASVKGRFTISRDNAKNSLYLQMNSLRAEDTAVYYCARVYGSTLHYWGQGTLVTVSS
VL: DIQMTQSPSSLSASVGDRVTITCRASESVEYHGTSLMHWYQQKPGKAPKLLIYAASNVESGVPSRFSGSGSGTDFTLTISSLQPEDFATYYCQQSRKVPWTFGQGTKVEIKR
modifications: afucosylated Fc glycan (Asn297)
notes: also called afucosyl h11G2 XC154/XC155; afucosylated h11G2 VL XC154/VH XC155
binding result (XC281): no binding (tested: 1 or 3 µg/ml (not on the sheet))

B2: Chimeric 11G2 (antibody, human IgG1, kappa, V domains shown)
VH: EVKLVESGGGLVQPGGSLRLSCATSGFTFTDFYMSWVRQPPGRALEWLGFIRNKANGYTTEYSASVKGRFTISRDNSQSILYLQMNTLRAGDSATYYCVRVYGSTLHYWGQGTILTVSS
VL: DVVVTQSPDSLAVSLGQRATISCRASESVEYHGTSLMHWYQQKPGQPPKLLIYAASNVESGVPARFSGSGSGTDFSLNIHPVEEGDIAMYFCQQSRKVPWTFGGGTKLEIKR
notes: mouse V regions on human IgG1/kappa; also called 11G2 (chimeric)
binding result (CXCR4): no binding (tested: 5 or 10 µg/ml (not on the sheet))

EC50 (human CXCR5 [2]): 0.21 nM
GMFI (XC256): 1970 GMFI
GMFI (XC253): 1780 GMFI
GMFI (human CXCR5 [1]): 117000 GMFI
B3: 2C9 (reference antibody) (antibody, human IgG1, kappa, V domains shown)
VH: EVQLVESGGGLVKPGGSLRLSCAASGFTFSTNAMNWVRQAPGKGLERVARIRSKSNNYATYYADSVKDRFTISRDDSKNTLYLQMNSLKTEDTAVYYCVTMIPFAYWGQGTLVTVSS
VL: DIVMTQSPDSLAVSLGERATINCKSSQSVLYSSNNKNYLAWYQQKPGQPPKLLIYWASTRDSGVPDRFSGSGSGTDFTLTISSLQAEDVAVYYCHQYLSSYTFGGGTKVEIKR
notes: fucosylated
binding result (XC276): no binding (tested: 1 or 3 µg/ml (not on the sheet))
binding result (XC277): no binding (tested: 1 or 3 µg/ml (not on the sheet))
